The labels stand for the following.
B1: HCoV-OC43 S protein (other)
chain: AVIGDLKCTSDNINDKDTGPPPISTDTVDVTNGLGTYYVLDRVYLNTTLFLNGYYPTSGSTYRNMALKGSVLLSRLWFKPPFLSDFINGIFAKVKNTKVIKDRVMYSEFPAITIGSTFVNTSYSVVVQPRTINSTQDGDNKLQGLLEVSVCQYNMCEYPQTICHPNLGNHRKELWHLDTGVVSCLYKRNFTYDVNADYLYFHFYQEGGTFYAYFTDTGVVTKFLFNVYLGMALSHYYVMPLTCNSKLTLEYWVTPLTSRQYLLAFNQDGIIFNAEDCMSDFMSEIKCKTQSIAPPTGVYELNGYTVQPIADVYRRKPNLPNCNIEAWLNDKSVPSPLNWERKTFSNCNFNMSSLMSFIQADSFTCNNIDAAKIYGMCFSSITIDKFAIPNGRKVDLQLGNLGYLQSFNYRIDTTATSCQLYYNLPAANVSVSRFNPSTWNKRFGFIEDSVFKPRPAGVLTNHDVVYAQHCFKAPKNFCPCKLNGSCVGSGPGKNNGIGTCPAGTNYLTCDNLCTPDPITFTGTYKCPQTKSLVGIGEHCSGLAVKSDYCGGNSCTCRPQAFLGWSADSCLQGDKCNIFANFILHDVNSGLTCSTDLQKANTDIILGVCVNYDLYGILGQGIFVEVNATYYNSWQNLLYDSNGNLYGFRDYIINRTFMIRSCYSGRVSAAFHANSSEPALLFRNIKCNYVFNNSLTRQLQPINYFDSYLGCVVNAYNSTAISVQTCDLTVGSGYCVDYSKNRRSRGAITTGYRFTNFEPFTVNSVNDSLEPVGGLYEIQIPSEFTIGNMVEFIQTSSPKVTIDCAAFVCGDYAACKSQLVEYGSFCDNINAILTEVNELLDTTQLQVANSLMNGVTLSTKLKDGVNFNVDDINFSPVLGCLGSECSKASSRSAIEDLLFDKVKLSDVGFVEAYNNCTGGAEIRDLICVQSYKGIKVLPPLLSENQISGYTLAATSASLFPPWTAAAGVPFYLNVQYRINGLGVTMDVLSQNQKLIANAFNNALYAIQEGFDATNSALVKIQAVVNANAEALNNLLQQLSNRFGAISASLQEILSRLDALEAEAQIDRLINGRLTALNAYVSQQLSDSTLVKFSAAQAMEKVNECVKSQSSRINFCGNGNHIISLVQNAPYGLYFIHFSYVPTKYVTARVSPGLCIAGDRGIAPKSGYFVNVNNTWMYTGSGYYYPEPITENNVVVMSTCAVNYTKAPYVMLNTSIPNLPDFKEELDQWFKNQTSVAPDLSLDYINVTFLDLQVEMNRLQEAIKVLNQSYINLKDIGTYEY
notes: also called S protein from HCoV-OC43
B2: MERS-CoV S protein (other)
chain: YVDVGPDSVKSACIEVDIQQTFFDKTWPRPIDVSKADGIIYPQGRTYSNITITYQGLFPYQGDHGDMYVYSAGHATGTTPQKLFVANYSQDVKQFANGFVVRIGAAANSTGTVIISPSTSATIRKIYPAFMLGSSVGNFSDGKMGRFFNHTLVLLPDGCGTLLRAFYCILEPRSGNHCPAGNSYTSFATYHTPATDCSDGNYNRNASLNSFKEYFNLRNCTFMYTYNITEDEILEWFGITQTAQGVHLFSSRYVDLYGGNMFQFATLPVYDTIKYYSIIPHSIRSIQSDRKAWAAFYVYKLQPLTFLLDFSVDGYIRRAIDCGFNDLSQLHCSYESFDVESGVYSVSSFEAKPSGSVVEQAEGVECDFSPLLSGTPPQVYNFKRLVFTNCNYNLTKLLSLFSVNDFTCSQISPAAIASNCYSSLILDYFSYPLSMKSDLSVSSAGPISQFNYKQSFSNPTCLILATVPHNLTTITKPLKYSYINKCSRFLSDDRTEVPQLVNANQYSPCVSIVPSTVWEDGDYYRKQLSPLEGGGWLVASGSTVAMTEQLQMGFGITVQYGTDTNSVCPKLEFANDTKIASQLGNCVEYSLYGVSGRGVFQNCTAVGVRQQRFVYDAYQNLVGYYSDDGNYYCLRACVSVPVSVIYDKETKTHATLFGSVACEHISSTMSQYSRSTRSMLKRRDSTYGPLQTPVGCVLGLVNSSLFVEDCKLPLGQSLCALPDTPSTLTPRSVRSVPGEMRLASIAFNHPIQVDQLNSSYFKLSIPTNFSFGVTQEYIQTTIQKVTVDCKQYVCNGFQKCEQLLREYGQFCSKINQALHGANLRQDDSVRNLFASVKSSQSSPIIPGFGGDFNLTLLEPVSISTGSRSARSAIEDLLFDKVTIADPGYMQGYDDCMQQGPASARDLICAQYVAGYKVLPPLMDVNMEAAYTSSLLGSIAGVGWTAGLSSFAAIPFAQSIFYRLNGVGITQQVLSENQKLIANKFNQALGAMQTGFTTTNEAFHKVQDAVNNNAQALSKLASELSNTFGAISASIGDIIQRLDVLEQDAQIDRLINGRLTTLNAFVAQQLVRSESAALSAQLAKDKVNECVKAQSKRSGFCGQGTHIVSFVVNAPNGLYFMHVGYYPSNHIEVVSAYGLCDAANPTNCIAPVNGYFIKTNNTRIVDEWSYTGSSFYAPEPITSLNTKYVAPQVTYQNISTNLPPPLLGNSTGIDFQDELDEFFKNVSTSIPNFGSLTQINTTLLDLTYEMLSLQQVVKALNESYIDLKELGNYTY
notes: also called S protein from MERS-CoV
B3: HCoV-HKU1 S protein (other)
chain: AVIGDFNCTNFAINDLNTTVPRISEYVVDVSYGLGTYYILDRVYLNTTILFTGYFPKSGANFRDLSLKGTTYLSTLWYQKPFLSDFNNGIFSRVKNTKLYVNKTLYSEFSTIVIGSVFINNSYTIVVQPHNGVLEITACQYTMCEYPHTICKSKGSSRNESWHFDKSEPLCLFKKNFTYNVSTDWLYFHFYQERGTFYAYYADSGMPTTFLFSLYLGTLLSHYYVLPLTCNAISSNTDNETLQYWVTPLSKRQYLLKFDNRGVITNAVDCSSSFFSEIQCKTKSLLPNTGVYDLSGFTVKPVATVHRRIPDLPDCDIDKWLNNFNVPSPLNWERKIFSNCNFNLSTLLRLVHTDSFSCNNFDESKIYGSCFKSIVLDKFAIPNSRRSDLQLGSSGFLQSSNYKIDTTSSSCQLYYSLPAINVTINNYNPSSWNRRYGFNNFNLSSHSVVYSRYCFSVNNTFCPCAKPSFASSCKSHKPPSASCPIGTNYRSCESTTVLDHTDWCRCSCLPDPITAYDPRSCSQKKSLVGVGEHCAGFGVDEEKCGVLDGSYNVSCLCSTDAFLGWSYDTCVSNNRCNIFSNFILNGINSGTTCSNDLLQPNTEVFTDVCVDYDLYGITGQGIFKEVSAVYYNSWQNLLYDSNGNIIGFKDFVTNKTYNIFPCYAGRVSAAFHQNASSLALLYRNLKCSYVLNNISLTTQPYFDSYLGCVFNADNLTDYSVSSCALRMGSGFCVDYNSPSSSSSRRKRRSISASYRFVTFEPFNVSFVNDSIESVGGLYEIKIPTNFTIVGQEEFIQTNSPKVTIDCSLFVCSNYAACHDLLSEYGTFCDNINSILDEVNGLLDTTQLHVADTLMQGVTLSSNLNTNLHFDVDNINFKSLVGCLGPHCGSSSRSFFEDLLFDKVKLSDVGFVEAYNNCTGGSEIRDLLCVQSFNGIKVLPPILSESQISGYTTAATVAAMFPPWSAAAGIPFSLNVQYRINGLGVTMDVLNKNQKLIATAFNNALLSIQNGFSATNSALAKIQSVVNSNAQALNSLLQQLFNKFGAISSSLQEILSRLDALEAQVQIDRLINGRLTALNAYVSQQLSDISLVKFGAALAMEKVNECVKSQSPRINFCGNGNHILSLVQNAPYGLLFMHFSYKPISFKTVLVSPGLCISGDVGIAPKQGYFIKHNDHWMFTGSSYYYPEPISDKNVVFMNTCSVNFTKAPLVYLNHSVPKLSDFESELSHWFKNQTSIAPNLTLNLHTINATFLDLYYEMNLIQESIKSLN
notes: also called S protein from HCoV-HKU1

T1 sequence (Q9BYF1 18-740 limits assumed): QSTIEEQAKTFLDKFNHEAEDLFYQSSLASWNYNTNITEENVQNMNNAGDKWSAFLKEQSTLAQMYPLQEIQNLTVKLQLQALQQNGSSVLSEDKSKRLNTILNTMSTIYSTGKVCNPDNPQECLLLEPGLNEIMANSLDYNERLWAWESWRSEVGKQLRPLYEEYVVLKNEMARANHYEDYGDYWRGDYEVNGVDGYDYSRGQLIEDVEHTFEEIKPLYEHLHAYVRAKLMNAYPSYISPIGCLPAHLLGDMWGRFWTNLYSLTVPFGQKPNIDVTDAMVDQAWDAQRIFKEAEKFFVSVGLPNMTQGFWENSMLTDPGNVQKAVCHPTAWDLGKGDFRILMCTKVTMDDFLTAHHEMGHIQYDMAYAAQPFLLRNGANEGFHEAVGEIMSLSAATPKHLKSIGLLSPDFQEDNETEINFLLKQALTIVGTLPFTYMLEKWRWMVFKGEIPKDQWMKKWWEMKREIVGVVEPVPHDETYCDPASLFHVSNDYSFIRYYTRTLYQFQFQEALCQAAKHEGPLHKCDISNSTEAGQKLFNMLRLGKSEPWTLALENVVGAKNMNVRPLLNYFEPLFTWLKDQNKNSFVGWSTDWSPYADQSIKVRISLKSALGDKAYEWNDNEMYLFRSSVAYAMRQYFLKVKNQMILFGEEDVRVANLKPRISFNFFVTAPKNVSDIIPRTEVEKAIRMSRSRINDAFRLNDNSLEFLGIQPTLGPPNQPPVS

This assay has as its target T1, ACE2 (angiotensin-converting enzyme 2), labeled (human, UniProt Q9BYF1 18-740).
T1 construct: also called labeled ACE2
The assay is described as follows: labeled ACE2 on immobilized Mixed Panel, ECL.
Take B1: the binding result is “no binding”.
The entry for B2 is “no binding”.
The value for B3 was “no binding”.

(Values after patent publication US20210349104A1 (MESO SCALE TECHNOLOGIES, published 2021).)
